# Biological target: T1, HLA-A*01 (human)
# T1 construct: MHC monomer made peptide-receptive by UV cleavage of a UV-sensitive ligand; also called peptide-receptive MHC class I monomer
# Test: UV peptide-exchange ELISA; ++++ = yield >75%
# From the text: (§1) Candidate peptides for T cell based therapies according to the present invention were further tested for their MHC binding capacity (affinity). The individual peptide-MHC complexes were produced by UV-ligand exchange, where a UV-sensitive peptide is cleaved upon UV-irradiation, and exchanged with the peptide of interest as analyzed. Only peptide candidates that can effectively bind and stabilize the peptide-receptive MHC molecules prevent dissociation of the MHC complexes. To determine the yield of the exchange reaction, an ELISA was performed based on the detection of the light chain (β2m) of stabilized MHC complexes. The assay was performed as generally described in Rodenko et al. (Rodenko et al., 2006).
# (§2) 96 well MAXISorp plates (NUNC) were coated over night with 2 ug/ml streptavidin in PBS at room temperature, washed 4× and blocked for 1 h at 37° C. in 2% BSA containing blocking buffer. […] Peptide-MHC monomers of the UV-exchange reaction were diluted 100-fold in blocking buffer. Samples were incubated for 1 h at 37° C., washed four times, incubated with 2 ug/ml HRP conjugated anti-β2m for 1h at 37° C., washed again and detected with TMB solution that is stopped with […]. Absorption was measured at 450 nm.
row,peptide exchange yield [%],Binder
1,> 75,ETEQTKFWDY [ETEQTKFWDY (SEQ ID NO: 406)]

# Biological target: T2, HLA-A*24 (human)
# T2 construct: MHC monomer made peptide-receptive by UV cleavage of a UV-sensitive ligand; also called peptide-receptive MHC class I monomer
# Test: UV peptide-exchange ELISA; ++++ = yield >75%
# From the text: as §1, §2
row,Binder,peptide exchange yield [%]
1,KYVKVFDKF [KYVKVFDKF (SEQ ID NO: 384)],> 75
2,LYISEVRNI [LYISEVRNI (SEQ ID NO: 49)],> 75
3,NYAIFDEGHML [NYAIFDEGHML (SEQ ID NO: 64)],> 75
4,LYPEGLRLL [LYPEGLRLL (SEQ ID NO: 81)],> 75
5,RWMDQRLVF [RWMDQRLVF (SEQ ID NO: 55)],> 75
6,HYTYILEVF [HYTYILEVF (SEQ ID NO: 13)],> 75
7,NYTLYPITF [NYTLYPITF (SEQ ID NO: 27)],> 75
8,KYALLLQDL [KYALLLQDL (SEQ ID NO: 15)],> 75
9,KYALLLQEL [KYALLLQEL (SEQ ID NO: 51)],> 75
10,MYPDLSELLM [MYPDLSELLM (SEQ ID NO: 24)],> 75
11,KYITNLEDL [KYITNLEDL (SEQ ID NO: 53)],> 75
12,NYIYSISVF [NYIYSISVF (SEQ ID NO: 75)],> 75
13,IMPEKFEFW [IMPEKFEFW (SEQ ID NO: 69)],> 75
14,RYMKKDYLI [RYMKKDYLI (SEQ ID NO: 5)],> 75
15,QYLPGWTVLF [QYLPGWTVLF (SEQ ID NO: 30)],> 75
16,PFLPPAACFF [PFLPPAACFF (SEQ ID NO: 8)],> 75
17,KYADYFLEV [KYADYFLEV (SEQ ID NO: 47)],> 75
18,KTPTNYYLF [KTPTNYYLF (SEQ ID NO: 26)],> 75
19,KYKDYFPVI [KYKDYFPVI (SEQ ID NO: 6)],> 75
20,QWPWQASLQF [QWPWQASLQF (SEQ ID NO: 37)],> 75
21,KYFVPPQLF [KYFVPPQLF (SEQ ID NO: 45)],> 75

row,Binder,peptide exchange yield [%]
1,EFTTVLYNF [EFTTVLYNF (SEQ ID NO: 20)],> 75
2,KYVKDFHKF [KYVKDFHKF (SEQ ID NO: 376)],> 75
3,DYIGSVEKW [DYIGSVEKW (SEQ ID NO: 18)],> 75
4,IYQQIIQTY [IYQQIIQTY (SEQ ID NO: 68)],> 75
5,PYTNYTFDF [PYTNYTFDF (SEQ ID NO: 70)],> 75
6,QFAAPLRGIYF [QFAAPLRGIYF (SEQ ID NO: 58)],> 75
7,KYTNWKAFL [KYTNWKAFL (SEQ ID NO: 38)],> 75
8,RYEGILYTI [RYEGILYTI (SEQ ID NO: 72)],> 75
9,AYLSAVGTF [AYLSAVGTF (SEQ ID NO: 44)],> 75
10,AFPVTSIFHTF [AFPVTSIFHTF (SEQ ID NO: 46)],> 75
11,IYFRDSSFL [IYFRDSSFL (SEQ ID NO: 66)],> 75
12,RYLADLPTL [RYLADLPTL (SEQ ID NO: 79)],> 75
13,KYLEESVWL [KYLEESVWL (SEQ ID NO: 35)],> 75
14,KFIISDWRF [KFIISDWRF (SEQ ID NO: 23)],> 75
15,LYQEILAQL [LYQEILAQL (SEQ ID NO: 62)],> 75
16,KFLGPAEHLTF [KFLGPAEHLTF (SEQ ID NO: 378)],> 75
17,RFLPSPVVI [RFLPSPVVI (SEQ ID NO: 82)],> 75
18,KYMKIFHKF [KYMKIFHKF (SEQ ID NO: 52)],> 75
19,QYQNVLTLW [QYQNVLTLW (SEQ ID NO: 31)],> 75
20,MQPRMFFLF [MQPRMFFLF (SEQ ID NO: 34)],> 75
21,QYDPTPLTW [QYDPTPLTW (SEQ ID NO: 1)],> 75

# Results, then the binder that gave them:
row,peptide exchange yield [%],Binder
1,> 75,VYDQYFITL [VYDQYFITL (SEQ ID NO: 74)]
2,> 75,VMPSDSFFF [VMPSDSFFF (SEQ ID NO: 63)]
3,> 75,VYMIEPLEL [VYMIEPLEL (SEQ ID NO: 56)]
4,> 75,VFIDHPVHLKF [VFIDHPVHLKF (SEQ ID NO: 48)]
5,> 75,SYNGYVFYL [SYNGYVFYL (SEQ ID NO: 25)]
6,> 75,YYSIISHTL [YYSIISHTL (SEQ ID NO: 28)]
7,> 75,TYSKKHFRI [TYSKKHFRI (SEQ ID NO: 381)]
8,> 75,SYPELVKMVW [SYPELVKMVW (SEQ ID NO: 50)]
9,> 75,YYSPLRDLL [YYSPLRDLL (SEQ ID NO: 80)]
10,> 75,TYCQNIKEF [TYCQNIKEF (SEQ ID NO: 83)]
11,> 75,TWFPKTPMLF [TWFPKTPMLF (SEQ ID NO: 78)]
12,> 75,VYPASKMFPFI [VYPASKMFPFI (SEQ ID NO: 65)]
13,> 75,RYPGKFYRV [RYPGKFYRV (SEQ ID NO: 67)]
14,> 75,VYVGAVNRI [VYVGAVNRI (SEQ ID NO: 377)]
15,> 75,SLPDLTPTF [SLPDLTPTF (SEQ ID NO: 32)]
16,> 75,SYMVLAPVF [SYMVLAPVF (SEQ ID NO: 71)]
17,> 75,VWSNVTPLKF [VWSNVTPLKF (SEQ ID NO: 2)]
18,> 75,SYEKVINYL [SYEKVINYL (SEQ ID NO: 4)]
19,> 75,YPSIIQEF [YPSIIQEF (SEQ ID NO: 57)]
20,> 75,YYSKSVGFMQW [YYSKSVGFMQW (SEQ ID NO: 11)]
21,> 75,TQPGDWTLF [TQPGDWTLF (SEQ ID NO: 22)]
22,> 75,VYSDLHAFYY [VYSDLHAFYY (SEQ ID NO: 375)]
23,> 75,TLPNTIYRF [TLPNTIYRF (SEQ ID NO: 42)]
24,> 75,VWSDVTPLNF [VWSDVTPLNF (SEQ ID NO: 10)]
25,> 75,VYPLLSRLYW [VYPLLSRLYW (SEQ ID NO: 29)]

# From patent US11352401
